B1: human 20S proteasome subunit α2 (natural protein)
chain: MAERGYSFSLTTFSPSGKLVQIEYALAAVAGGAPSVGIKAANGVVLATEKKQKSILYDERSVHKVEPITKHIGLVYSGMGPDYRVLVHRARKLAQQYYLVYQEPIPTAQLVQRVASVMQEYTQSGGVRPFGVSLLICGWNEGRPYLFQSDPSGAYFAWKATAMGKNYVNGKTFLEKRYNEDLELEDAIHTAILTLKESFEGQMTEDNIEVGICNEAGFRRLTPTEVKDYLAAIA
notes: 20S proteasome subunit α2, human; named only as α2; Stood in the experiment as a subunit of the whole 20S core particle; source: bought: Boston Biochem, as part of the human 20S proteasome
B2: human 20S proteasome subunit α3 (natural protein)
chain: MSRRYDSRTTIFSPEGRLYQVEYAMEAIGHAGTCLGILANDGVLLAAERRNIHKLLDEVFFSEKIYKLNEDMACSVAGITSDANVLTNELRLIAQRYLLQYQEPIPCEQLVTALCDIKQAYTQFGGKRPFGVSLLYIGWDKHYGFQLYQSDPSGNYGGWKATCIGNNSAAAVSMLKQDYKEGEMTLKSALALAIKVLNKTMDVSKLSAEKVEIATLTRENGKTVIRVLKQKEVEQLIKKHEEEEAKAEREKKEKEQKEKDK
notes: 20S proteasome subunit α3, human; named only as α3; Stood in the experiment as a subunit of the whole 20S core particle; source: bought: Boston Biochem, as part of the human 20S proteasome
B3: human 20S proteasome subunit α4 (natural protein)
chain: MSYDRAITVFSPDGHLFQVEYAQEAVKKGSTAVGVRGRDIVVLGVEKKSVAKLQDERTVRKICALDDNVCMAFAGLTADARIVINRARVECQSHRLTVEDPVTVEYITRYIASLKQRYTQSNGRRPFGISALIVGFDFDGTPRLYQTDPSGTYHAWKANAIGRGAKSVREFLEKNYTDEAIETDDLTIKLVIKALLEVVQSGGKNIELAVMRRDQSLKILNPEEIEKYVAEIEKEKEENEKKKQKKAS
notes: 20S proteasome subunit α4, human; named only as α4; Stood in the experiment as a subunit of the whole 20S core particle; source: bought: Boston Biochem, as part of the human 20S proteasome
B4: human 20S proteasome subunit α5 (natural protein)
chain: MFLTRSEYDRGVNTFSPEGRLFQVEYAIEAIKLGSTAIGIQTSEGVCLAVEKRITSPLMEPSSIEKIVEIDAHIGCAMSGLIADAKTLIDKARVETQNHWFTYNETMTVESVTQAVSNLALQFGEEDADPGAMSRPFGVALLFGGVDEKGPQLFHMDPSGTFVQCDARAIGSASEGAQSSLQEVYHKSMTLKEAIKSSLIILKQVMEEKLNATNIELATVQPGQNFHMFTKEELEEVIKDI
notes: 20S proteasome subunit α5, human; named only as α5; Stood in the experiment as a subunit of the whole 20S core particle; source: bought: Boston Biochem, as part of the human 20S proteasome
B5: human 20S proteasome subunit α7 (natural protein)
chain: MSSIGTGYDLSASTFSPDGRVFQVEYAMKAVENSSTAIGIRCKDGVVFGVEKLVLSKLYEEGSNKRLFNVDRHVGMAVAGLLADARSLADIAREEASNFRSNFGYNIPLKHLADRVAMYVHAYTLYSAVRPFGCSFMLGSYSVNDGAQLYMIDPSGVSYGYWGCAIGKARQAAKTEIEKLQMKEMTCRDIVKEVAKIIYIVHDEVKDKAFELELSWVGELTNGRHEIVPKDIREEAEKYAKESLKEEDESDDDNM
notes: 20S proteasome subunit α7, human; named only as α7; Stood in the experiment as a subunit of the whole 20S core particle; source: bought: Boston Biochem, as part of the human 20S proteasome

Key:
[1] = biological target: human 20S proteasome core particle (human) (UniProt P60900)
Chain of human 20S proteasome core particle (human) (P60900 whole entry, looked up): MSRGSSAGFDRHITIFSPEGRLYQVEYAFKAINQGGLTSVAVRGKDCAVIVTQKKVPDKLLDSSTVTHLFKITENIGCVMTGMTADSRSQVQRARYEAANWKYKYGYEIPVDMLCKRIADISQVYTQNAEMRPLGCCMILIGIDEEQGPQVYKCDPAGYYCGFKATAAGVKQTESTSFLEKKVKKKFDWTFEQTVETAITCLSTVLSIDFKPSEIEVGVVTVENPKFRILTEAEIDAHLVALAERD

[2] = biological target: T1, human proteasome activator 200 (PA200) (human, UniProt Q14997 1-1843); test: cryo-EM structure; 3 μl 20S-CP (approximately 1.4 mg/ml) incubated with 6 μl PA200 (approximately 0.44 mg/ml) in ice for 1 h; single-capped PA200-20S particles selected; 2.72 Å; conditions: both partners purified
T1 construct: Carries the cofactors 5,6[PP]2-InsP4 and InsP6 in its two openings; The results say 1,844 residues, the methods 1-1,843; source: Trichoplusia ni (Hi5) insect cells, baculovirus (Bac-to-Bac), purified (Ni-NTA, gel filtration on Superose 6)
T1 sequence (Q14997 whole entry): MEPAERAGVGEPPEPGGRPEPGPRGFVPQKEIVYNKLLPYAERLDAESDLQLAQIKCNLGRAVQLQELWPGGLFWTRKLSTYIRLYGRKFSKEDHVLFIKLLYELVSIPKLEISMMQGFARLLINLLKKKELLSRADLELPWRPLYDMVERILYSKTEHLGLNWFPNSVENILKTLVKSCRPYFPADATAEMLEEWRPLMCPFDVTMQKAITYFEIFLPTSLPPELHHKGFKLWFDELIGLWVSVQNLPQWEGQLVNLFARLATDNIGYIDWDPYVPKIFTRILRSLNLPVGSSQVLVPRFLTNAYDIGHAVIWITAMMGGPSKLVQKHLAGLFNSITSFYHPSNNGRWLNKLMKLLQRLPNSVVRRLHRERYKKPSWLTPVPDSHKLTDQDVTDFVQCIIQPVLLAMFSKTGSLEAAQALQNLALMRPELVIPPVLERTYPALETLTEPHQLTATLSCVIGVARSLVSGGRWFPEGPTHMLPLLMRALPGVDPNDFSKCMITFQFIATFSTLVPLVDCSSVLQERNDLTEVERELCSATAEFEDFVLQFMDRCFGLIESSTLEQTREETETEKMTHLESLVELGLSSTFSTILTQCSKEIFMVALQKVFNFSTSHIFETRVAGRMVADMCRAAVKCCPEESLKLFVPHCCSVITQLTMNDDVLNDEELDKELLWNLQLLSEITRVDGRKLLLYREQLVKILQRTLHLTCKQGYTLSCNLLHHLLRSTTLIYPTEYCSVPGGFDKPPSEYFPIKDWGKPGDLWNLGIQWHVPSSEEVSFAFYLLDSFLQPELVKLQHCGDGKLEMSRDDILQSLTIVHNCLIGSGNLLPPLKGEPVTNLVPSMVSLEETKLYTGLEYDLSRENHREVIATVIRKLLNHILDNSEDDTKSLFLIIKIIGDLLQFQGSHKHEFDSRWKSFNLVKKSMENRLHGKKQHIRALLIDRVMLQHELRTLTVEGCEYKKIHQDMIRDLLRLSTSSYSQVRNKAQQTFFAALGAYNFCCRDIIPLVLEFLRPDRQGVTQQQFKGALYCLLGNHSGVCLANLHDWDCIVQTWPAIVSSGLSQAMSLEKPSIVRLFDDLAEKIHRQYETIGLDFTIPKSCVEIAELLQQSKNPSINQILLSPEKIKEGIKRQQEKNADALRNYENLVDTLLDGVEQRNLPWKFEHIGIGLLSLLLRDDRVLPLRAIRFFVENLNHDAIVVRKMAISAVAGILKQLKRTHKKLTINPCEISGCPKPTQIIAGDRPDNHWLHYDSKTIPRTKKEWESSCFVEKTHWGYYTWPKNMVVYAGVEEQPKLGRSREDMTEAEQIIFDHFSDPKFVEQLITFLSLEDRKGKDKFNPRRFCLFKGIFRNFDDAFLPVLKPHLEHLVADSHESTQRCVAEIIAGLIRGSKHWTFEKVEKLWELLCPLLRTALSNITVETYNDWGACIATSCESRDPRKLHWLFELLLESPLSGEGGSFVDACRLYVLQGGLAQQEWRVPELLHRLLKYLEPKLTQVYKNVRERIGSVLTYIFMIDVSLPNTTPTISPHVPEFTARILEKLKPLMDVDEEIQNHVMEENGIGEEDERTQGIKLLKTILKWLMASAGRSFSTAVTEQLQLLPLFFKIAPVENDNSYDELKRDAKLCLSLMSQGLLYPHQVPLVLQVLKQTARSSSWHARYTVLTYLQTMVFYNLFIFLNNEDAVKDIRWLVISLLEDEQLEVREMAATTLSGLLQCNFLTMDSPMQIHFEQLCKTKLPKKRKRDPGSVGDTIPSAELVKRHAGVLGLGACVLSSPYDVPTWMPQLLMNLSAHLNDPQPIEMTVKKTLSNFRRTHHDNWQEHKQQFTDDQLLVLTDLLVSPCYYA

Row | Molecule | Vmax of cleavage of Suc-LLVY-AMC (chymotryptic-like activity) by PA200-20S, 2.5 nM; 20S alone 3.14 μM/min [1] [µM/min] | binding result [2]
1 | human proteasome activator 200 (PA200) (from UniProt Q14997 1-1843) (natural protein) | 11.4 | 
2 | B1 |  | binds
3 | B2 |  | binds
4 | B3 |  | binds
5 | B4 |  | binds
6 | B5 |  | binds
